Results published in patent US20100098682A1 (published 2010).

Tests used:
[1] = molecular target: T1, Amyloid precursor protein (APP), full length (human, UniProt P05067-4 18-695); assay: anti-myc immunoprecipitation from γ30 cell lysates, western blot
T1 construct: whole, on cells; Used for transfected APP (HeLa), stably expressed APP (HEK293APP, γ30 cells) and endogenous APP of human brain homogenates; also called full length APP; mature, glycosylated APP
Procedure: (§1) FIG. 4 is photographs of western blots establishing that the first 102 amino acids of BRI2 are necessary to inhibit the efficient cleavage of C99 and that the same region is necessary for the binding of BRI2 to C99 of APP. […] HC indicates the heavy chain of myc antibody used in the immunoprecipitation.
(§2) Immunoprecipitation and western blot. Unless otherwise noted, all immunoprecipitation procedures were performed at 4° C. The transfected cells were lysed in Buffer A [20 mM Hepes/NaOH pH 7.4, 1 mM EDTA, 1 mM DTT, 150 mM NaCl, 0.5% (w/v) TritonX-100] containing 10% (v/v) Glycerol for 30 min, and the lysates were cleared at 20,000 g for 10 min. For FLAG immunoprecipitation, the cleared lysates were mixed with 20 μl of FLAG-M2 beads (Sigma) for 2 hours, and washed three times with Buffer A. The precipitates were boiled in 60 μl of 2×SDS sample buffer and subjected to western blot. For other immunoprecipitation, the cleared lysates were incubated with antibodies for one hour, and mixed with 20 μl of protein A/G beads (Pierce), washed and processed as above. Human brains (a generous gift of Dr. Peter Davies) were homogenized in Buffer A containing 10% (v/v) Glycerol using a Dounce homogenizer. The proteins were extracted overnight with the protein concentration at 5 mg/ml. Extracted proteins were cleared at 20,000 g for one hour. The supernatants were incubated with the indicated antibodies and protein A/G beads blocked with PBS containing 1% (w/v) BSA. Precipitants were washed and processed as described above.

[2] = molecular target: T2, C99, COOH-terminal fragment of 99 amino acids of APP (human, UniProt P05067 672-770); assay: as above
T2 construct: domain: COOH-terminal fragment of 99 amino acids (C99); Produced in cells from APP by processing; also endogenous C99 of human brain
Procedure: as §1, §2

Binder | binding result [1] | binding result [2]
myc-tagged BRI2 C-terminal deletion, first 93 amino acids (other, Expressed in γ30 cells; also called BRI2 1-93; not shown: myc tag) MVKVTFNSALAQKEAKKDEPKSGEEALIIPPDAVAVDCKDPDDVVPVGQRRAWCWCMCFGLAFMLAGVILGGAYLYKYFALQPDDVYYCGIKY | no binding | no binding
myc-tagged BRI2 C-terminal deletion, first 80 amino acids (other, Expressed in γ30 cells; also called BRI2 1-80; not shown: myc tag) MVKVTFNSALAQKEAKKDEPKSGEEALIIPPDAVAVDCKDPDDVVPVGQRRAWCWCMCFGLAFMLAGVILGGAYLYKYFA | no binding | no binding
